Measurements published in paper PMC3056663, “A Bi-Functional Anti-Thrombosis Protein Containing Both Direct-Acting Fibrin(ogen)olytic and Plasminogen-Activating Activities” (PLoS ONE, 2011).

B1: native eupolytin1 (NE) (Eupolyphaga sinensis) (protein)
chain: RIVGGSDANIEDLPYQLSFEYGGSHMCGASIISENWVVTAAHCVDGVSASSARFRAGSSVRGSGGSLHQATQLIANPQYDYYTIDYDVAVARVATPFSYGSGVQPISLISVEPSAGQTATVSGWGTFFSGGSLPRQLQVVSVPIVSPQQCNNDYASYGGITENMICAAEEQGGKDPCQGDSSGPLTVGGQLAGIVSWGAGCAQRGYPGVYSNVATLRKFITDETGVN
notes: mature protein of 227 residues, 27-residue signal peptide removed (precursor 254); purified natively from mid-gut; 26 kDa on SDS-PAGE
B2: recombinant eupolytin1 (RE) (Eupolyphaga sinensis) (protein)
chain: IVGGSDANIEDLPYQLSFEYGGSHMCGASIISENWVVTAAHCVDGVSASSARFRAGSSVRGSGGSLHQATQLIANPQYDYYTIDYDVAVARVATPFSYGSGVQPISLISVEPSAGQTATVSGWGTFFSGGSLPRQLQVVSVPIVSPQQCNNDYASYGGITENMICAAEEQGGKDPCQGDSSGPLTVGGQLAGIVSWGAGCAQRGYPGVYSNVATLRKFITDETGVN
notes: tag released by enterokinase; primer encodes DDDDK-IVGG at the cleavage site; Mono Q purified

Substrate: N=C(N)NCCC[C@H](NC(=O)c1ccccc1)C(=O)Nc1ccc([N+](=O)[O-])cc1
Experiment: purified protein
Assay type: biochemical, Eupolyphaga sinensis
Settings: 50 mM Tris-HCl, pH 7.8, 37°C

Protein | Km [mM] | Vmax [µM/min] | kcat/Km [M⁻¹ s⁻¹]
B1 | 3.24 | 63000 | 1e+07
B2 | 3.01 | 67200 | 8e+06
